First the molecules themselves.
B1: DVD486 DLL4 arm (antibody)
chain 1: EVQLVESGGGLVQPGGSLRLSCAASGFTFTDNWISWVRQAPGKGLEWVGYISPNSGFTYYADSVKGRFTISADTSKNTAYLQMNSLRAEDTAVYYCARDNFGGYFDYWGQGTLVTVSS
chain 2: DIQMTQSPSSLSASVGDRVTITCRASQDVSTAVAWYQQKPGKAPKLLIYSASFLYSGVPSRFSGSGSGTDFTLTISSLQPEDFATTYYCQQSYTGTVTFGQGTKVEIKR
modifications: DVD-Ig inner
B2: DVD485 DLL4 arm (antibody)
chain 1: EVQLVESGGGLVQPGGSLRLSCAASGFTFTDNWISWVRQAPGKGLEWVGYISPNSGFTYYADSVKGRFTISADTSKNTAYLQMNSLRAEDTAVYYCARDNFGGYFDYWGQGTLVTVSS
chain 2: DIQMTQSPSSLSASVGDRVTITCRASQDVSTAVAWYQQKPGKAPKLLIYSASFLYSGVPSRFSGSGSGTDFTLTISSLQPEDFATTYYCQQSYTGTVTFGQGTKVEIKR
modifications: DVD-Ig outer
B3: DVD477 DLL4 arm (antibody)
chain 1: EVQLVESGGGLVQPGGSLRLSCAASGFTFTDNWISWVRQAPGKGLEWVGYISPNSGFTYYADSVKGRFTISADTSKNTAYLQMNSLRAEDTAVYYCARDNFGGYFDYWGQGTLVTVSS
chain 2: DIQMTQSPSSLSASVGDRVTITCRASQDVSTAVAWYQQKPGKAPKLLIYSASFLYSGVPSRFSGSGSGTDFTLTISSLQPEDFATTYYCQQSYTGTVTFGQGTKVEIKR
modifications: DVD-Ig outer
B4: DVD484 DLL4 arm (antibody)
chain 1: EVQLVESGGGLVQPGGSLRLSCAASGFTFTDNWISWVRQAPGKGLEWVGYISPNSGFTYYADSVKGRFTISADTSKNTAYLQMNSLRAEDTAVYYCARDNFGGYFDYWGQGTLVTVSS
chain 2: DIQMTQSPSSLSASVGDRVTITCRASQDVSTAVAWYQQKPGKAPKLLIYSASFLYSGVPSRFSGSGSGTDFTLTISSLQPEDFATTYYCQQSYTGTVTFGQGTKVEIKR
modifications: DVD-Ig inner
B5: DVD467 DLL4 arm (antibody)
chain 1: EVQLVESGGGLVQPGGSLRLSCAASGFTFTDNWISWVRQAPGKGLEWVGYISPNSGFTYYADSVKGRFTISADTSKNTAYLQMNSLRAEDTAVYYCARDNFGGYFDYWGQGTLVTVSS
chain 2: DIQMTQSPSSLSASVGDRVTITCRASQDVSTAVAWYQQKPGKAPKLLIYSASFLYSGVPSRFSGSGSGTDFTLTISSLQPEDFATTYYCQQSYTGTVTFGQGTKVEIKR
modifications: DVD-Ig outer
B6: DVD470 DLL4 arm (antibody)
chain 1: EVQLVESGGGLVQPGGSLRLSCAASGFTFTDNWISWVRQAPGKGLEWVGYISPNSGFTYYADSVKGRFTISADTSKNTAYLQMNSLRAEDTAVYYCARDNFGGYFDYWGQGTLVTVSS
chain 2: DIQMTQSPSSLSASVGDRVTITCRASQDVSTAVAWYQQKPGKAPKLLIYSASFLYSGVPSRFSGSGSGTDFTLTISSLQPEDFATTYYCQQSYTGTVTFGQGTKVEIKR
modifications: DVD-Ig inner
B7: DVD468 DLL4 arm (antibody)
chain 1: EVQLVESGGGLVQPGGSLRLSCAASGFTFTDNWISWVRQAPGKGLEWVGYISPNSGFTYYADSVKGRFTISADTSKNTAYLQMNSLRAEDTAVYYCARDNFGGYFDYWGQGTLVTVSS
chain 2: DIQMTQSPSSLSASVGDRVTITCRASQDVSTAVAWYQQKPGKAPKLLIYSASFLYSGVPSRFSGSGSGTDFTLTISSLQPEDFATTYYCQQSYTGTVTFGQGTKVEIKR
modifications: DVD-Ig inner
B8: DVD458 DLL4 arm (antibody, V domains shown)
VH: QVQLVQSGAEVKKPGASVKISCKASGYSFTAYYIHWVKQAPGQGLEWIGYISSYNGATNYNQKFKGRVTFTTDTSTSTAYMELRSLRSDDTAVYYCARDYDYDVGMDYWGQGTLVTVSS
VL: DIVMTQSPDSLAVSLGERATISCRASESVDNYGISFMKWFQQKPGQPPKLLIYAASNQGSGVPDRFSGSGSGTDFTLTISSLQAEDVAVYYCQQSKEVPWTFGGGTKVEIKR
modifications: DVD-Ig inner
B9: DVD461 DLL4 arm (antibody, V domains shown)
VH: QVQLVQSGAEVKKPGASVKISCKASGYSFTAYYIHWVKQAPGQGLEWIGYISSYNGATNYNQKFKGRVTFTTDTSTSTAYMELRSLRSDDTAVYYCARDYDYDVGMDYWGQGTLVTVSS
VL: DIVMTQSPDSLAVSLGERATISCRASESVDNYGISFMKWFQQKPGQPPKLLIYAASNQGSGVPDRFSGSGSGTDFTLTISSLQAEDVAVYYCQQSKEVPWTFGGGTKVEIKR
modifications: DVD-Ig outer
B10: DVD464 DLL4 arm (antibody, V domains shown)
VH: QVQLVQSGAEVKKPGASVKISCKASGYSFTAYYIHWVKQAPGQGLEWIGYISSYNGATNYNQKFKGRVTFTTDTSTSTAYMELRSLRSDDTAVYYCARDYDYDVGMDYWGQGTLVTVSS
VL: DIVMTQSPDSLAVSLGERATISCRASESVDNYGISFMKWFQQKPGQPPKLLIYAASNQGSGVPDRFSGSGSGTDFTLTISSLQAEDVAVYYCQQSKEVPWTFGGGTKVEIKR
modifications: DVD-Ig inner
B11: DVD452 DLL4 arm (antibody, V domains shown)
VH: QVQLVQSGAEVKKPGASVKISCKASGYSFTAYYIHWVKQAPGQGLEWIGYISSYNGATNYNQKFKGRVTFTTDTSTSTAYMELRSLRSDDTAVYYCARDYDYDVGMDYWGQGTLVTVSS
VL: DIVMTQSPDSLAVSLGERATISCRASESVDNYGISFMKWFQQKPGQPPKLLIYAASNQGSGVPDRFSGSGSGTDFTLTISSLQAEDVAVYYCQQSKEVPWTFGGGTKVEIKR
modifications: DVD-Ig inner
B12: DVD460 DLL4 arm (antibody, V domains shown)
VH: QVQLVQSGAEVKKPGASVKISCKASGYSFTAYYIHWVKQAPGQGLEWIGYISSYNGATNYNQKFKGRVTFTTDTSTSTAYMELRSLRSDDTAVYYCARDYDYDVGMDYWGQGTLVTVSS
VL: DIVMTQSPDSLAVSLGERATISCRASESVDNYGISFMKWFQQKPGQPPKLLIYAASNQGSGVPDRFSGSGSGTDFTLTISSLQAEDVAVYYCQQSKEVPWTFGGGTKVEIKR
modifications: DVD-Ig inner
B13: DVD445 DLL4 arm (antibody, V domains shown)
VH: QVQLVQSGAEVKKPGASVKISCKASGYSFTAYYIHWVKQAPGQGLEWIGYISSYNGATNYNQKFKGRVTFTTDTSTSTAYMELRSLRSDDTAVYYCARDYDYDVGMDYWGQGTLVTVSS
VL: DIVMTQSPDSLAVSLGERATISCRASESVDNYGISFMKWFQQKPGQPPKLLIYAASNQGSGVPDRFSGSGSGTDFTLTISSLQAEDVAVYYCQQSKEVPWTFGGGTKVEIKR
modifications: DVD-Ig outer
B14: DVD519 DLL4 arm (antibody, V domains shown)
VH: EVQLQQSGPELEKPGASVKISCKASGYSFTGYNMNWVKQSNGKSLEWIGNIDPYFGGTNYNQKFKGKATLTVDKSSSTAYMQLKSLTSEDSAVYYCARNYDYDGGCFDYWGQGTTLTVSS
VL: QAVVTQESALTTSPGETVTLTCRSSTGAVTTSNYANWVQEKPDHLFTGLIGGTNNRAPGVPARFSGSLIGDKAALTITGAQTEDEAIYFCALWYSNHWVFGGGTKLTVLG
modifications: DVD-Ig outer
B15: DVD512 DLL4 arm (antibody, V domains shown)
VH: EVQLQQSGPELEKPGASVKISCKASGYSFTGYNMNWVKQSNGKSLEWIGNIDPYFGGTNYNQKFKGKATLTVDKSSSTAYMQLKSLTSEDSAVYYCARNYDYDGGCFDYWGQGTTLTVSS
VL: QAVVTQESALTTSPGETVTLTCRSSTGAVTTSNYANWVQEKPDHLFTGLIGGTNNRAPGVPARFSGSLIGDKAALTITGAQTEDEAIYFCALWYSNHWVFGGGTKLTVLG
modifications: DVD-Ig inner
B16: DVD515 DLL4 arm (antibody, V domains shown)
VH: EVQLQQSGPELEKPGASVKISCKASGYSFTGYNMNWVKQSNGKSLEWIGNIDPYFGGTNYNQKFKGKATLTVDKSSSTAYMQLKSLTSEDSAVYYCARNYDYDGGCFDYWGQGTTLTVSS
VL: QAVVTQESALTTSPGETVTLTCRSSTGAVTTSNYANWVQEKPDHLFTGLIGGTNNRAPGVPARFSGSLIGDKAALTITGAQTEDEAIYFCALWYSNHWVFGGGTKLTVLG
modifications: DVD-Ig outer
B17: DVD521 DLL4 arm (antibody, V domains shown)
VH: EVQLQQSGPELEKPGASVKISCKASGYSFTGYNMNWVKQSNGKSLEWIGNIDPYFGGTNYNQKFKGKATLTVDKSSSTAYMQLKSLTSEDSAVYYCARNYDYDGGCFDYWGQGTTLTVSS
VL: QAVVTQESALTTSPGETVTLTCRSSTGAVTTSNYANWVQEKPDHLFTGLIGGTNNRAPGVPARFSGSLIGDKAALTITGAQTEDEAIYFCALWYSNHWVFGGGTKLTVLG
modifications: DVD-Ig outer
B18: DVD529 DLL4 arm (antibody, V domains shown)
VH: EVQLQQSGPELEKPGASVKISCKASGYSFTGYNMNWVKQSNGKSLEWIGNIDPYFGGTNYNQKFKGKATLTVDKSSSTAYMQLKSLTSEDSAVYYCARNYDYDGGCFDYWGQGTTLTVSS
VL: QAVVTQESALTTSPGETVTLTCRSSTGAVTTSNYANWVQEKPDHLFTGLIGGTNNRAPGVPARFSGSLIGDKAALTITGAQTEDEAIYFCALWYSNHWVFGGGTKLTVLG
modifications: DVD-Ig outer
B19: DVD497 DLL4 arm (antibody, V domains shown)
VH: EVQLQQSGPELVKPGASVKMSCKASGYTFTSYVINWVKQKPGQGLEWIGLINPYNDGTKYNEKFKVKATLTSDKSSSTAYMELSSLTSEDSAVYYCASYYYGSRYYFDYWGQGTTLTVSS
VL: DIQMTQSSSYLSVSLGGRVTITCKASDHINNWLAWYQQKPGNAPRLLISGATSLETGVPSRFSGSGSGKDYTLSITSLQTEDVATYYCQQYWSIPLTFGAGTKLELKR
modifications: DVD-Ig outer
B20: DVD509 DLL4 arm (antibody, V domains shown)
VH: EVQLQQSGPELVKPGASVKMSCKASGYTFTSYVINWVKQKPGQGLEWIGLINPYNDGTKYNEKFKVKATLTSDKSSSTAYMELSSLTSEDSAVYYCASYYYGSRYYFDYWGQGTTLTVSS
VL: DIQMTQSSSYLSVSLGGRVTITCKASDHINNWLAWYQQKPGNAPRLLISGATSLETGVPSRFSGSGSGKDYTLSITSLQTEDVATYYCQQYWSIPLTFGAGTKLELKR
modifications: DVD-Ig outer
B21: DVD489 DLL4 arm (antibody, V domains shown)
VH: EVQLQQSGPELVKPGASVKMSCKASGYTFTSYVINWVKQKPGQGLEWIGLINPYNDGTKYNEKFKVKATLTSDKSSSTAYMELSSLTSEDSAVYYCASYYYGSRYYFDYWGQGTTLTVSS
VL: DIQMTQSSSYLSVSLGGRVTITCKASDHINNWLAWYQQKPGNAPRLLISGATSLETGVPSRFSGSGSGKDYTLSITSLQTEDVATYYCQQYWSIPLTFGAGTKLELKR
modifications: DVD-Ig outer

Our source for the EC50 values is patent publication US9029508 (dated 2015).

For the test, the target named is DLL4 (human, UniProt Q9NR61). Briefly: ELISA. (ELISA stands for enzyme-linked immunosorbent assay.)
Sequence of DLL4 (Q9NR61 27-524): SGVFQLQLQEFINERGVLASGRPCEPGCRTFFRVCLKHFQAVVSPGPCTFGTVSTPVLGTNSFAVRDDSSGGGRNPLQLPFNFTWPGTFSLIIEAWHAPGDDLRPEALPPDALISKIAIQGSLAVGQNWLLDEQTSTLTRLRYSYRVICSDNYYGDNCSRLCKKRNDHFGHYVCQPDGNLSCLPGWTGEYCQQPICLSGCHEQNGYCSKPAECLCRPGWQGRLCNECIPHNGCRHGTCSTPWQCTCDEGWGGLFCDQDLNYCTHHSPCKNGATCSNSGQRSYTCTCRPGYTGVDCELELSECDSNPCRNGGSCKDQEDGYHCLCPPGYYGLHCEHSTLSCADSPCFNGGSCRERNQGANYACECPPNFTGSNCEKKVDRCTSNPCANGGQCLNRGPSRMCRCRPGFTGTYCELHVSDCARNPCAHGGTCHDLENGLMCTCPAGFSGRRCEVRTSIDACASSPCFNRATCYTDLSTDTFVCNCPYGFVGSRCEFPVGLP
With B1, a half-maximal effect (EC50) was put at 590 pM.
On to B2, for which the EC50 (commonly the concentration needed to bring the measured effect to its halfway point) amounted to 1410 pM.
The same measure for B3: 690 pM; for B4: 1750 pM; for B5: 540 pM.
For B6, the EC50 is 190 pM.
Regarding B7, the EC50 came out at 2280 pM.
On to B8, for which a half-maximal effect (EC50) was put at 1540 pM. This EC50 and that of the molecule before are within 1.5-fold of each other.
For the molecule B9, the EC50 stood at 520 pM.
On to B10, for which the 50% effective concentration (EC50) was found to be 800 pM.
The value for B11 was 340 pM; that for B12 was 640 pM.
B13 returned an EC50 of 170 pM.
Consider B14, for which a half-maximal response (EC50) required 1530 pM.
Consider B15, for which the EC50 was 1710 pM.
For the molecule B16, the EC50 amounted to 200 pM.
B17 yielded a half-maximal effective concentration (EC50) of 260 pM.
The value for B18 was 100 pM.
In the case of B19, the midpoint of the response, the EC50, lay at 530 pM.
On to B20, for which the EC50 came to 210 pM.
In turn, B21 gave an EC50 of 620 pM.
